{"source": "the supplement of paper PMC10567573", "parents": {"B1": {"name": "CCNC (parent)", "chain": "QSSHYLQWILDKQDLLKERQKDLK"}, "B2": {"name": "INTS3 (parent)", "chain": "FHPIKETVVEEPVDITPYLDQLDE"}}}
{"variants_of": "B1", "test": "protein stability index of a GFP-peptide fusion (GPS, HEK-293T) (PSI 1-6); higher = more stable", "conditions": "c terminus: a fixed tail appended"}
{"variant": "QSSHYLQWILDKQDLLKERQIDLK", "note": "[K21I]", "protein stability index": 3.01}
{"variant": "QSSHYLQWILDKQDLLKERQLDLK", "note": "[K21L]", "protein stability index": 2.43}
{"variant": "QSSHYLQWILDKQDLLKERQMDLK", "note": "[K21M]", "protein stability index": 2.9}
{"variant": "QSSHYLQWILDKQDLLKERQNDLK", "note": "[K21N]", "protein stability index": 2.57}
{"variant": "QSSHYLQWILDKQDLLKERQPDLK", "note": "[K21P]", "protein stability index": 3.42}
{"variant": "QSSHYLQWILDKQDLLKERQQDLK", "note": "[K21Q]", "protein stability index": 3.02}
{"variant": "QSSHYLQWILDKQDLLKERQRDLK", "note": "[K21R]", "protein stability index": 4.05}
{"variant": "QSSHYLQWILDKQDLLKERQSDLK", "note": "[K21S]", "protein stability index": 2.84}
{"variant": "QSSHYLQWILDKQDLLKERQTDLK", "note": "[K21T]", "protein stability index": 3.28}
{"variant": "QSSHYLQWILDKQDLLKERQWDLK", "note": "[K21W]", "protein stability index": 2.3}
{"variant": "QSSHYLQWILDKQDLLKERQYDLK", "note": "[K21Y]", "protein stability index": 2.69}
{"variant": "QSSHYLQWILDKQDLLKERQKALK", "note": "[D22A]", "protein stability index": 2.61}
{"variant": "QSSHYLQWILDKQDLLKERQKCLK", "note": "[D22C]", "protein stability index": 2.54}
{"variant": "QSSHYLQWILDKQDLLKERQKELK", "note": "[D22E]", "protein stability index": 3.19}
{"variant": "QSSHYLQWILDKQDLLKERQKFLK", "note": "[D22F]", "protein stability index": 2.67}
{"variant": "QSSHYLQWILDKQDLLKERQKGLK", "note": "[D22G]", "protein stability index": 2.6}
{"variant": "QSSHYLQWILDKQDLLKERQKHLK", "note": "[D22H]", "protein stability index": 3.02}
{"variant": "QSSHYLQWILDKQDLLKERQKILK", "note": "[D22I]", "protein stability index": 2.48}
{"variant": "QSSHYLQWILDKQDLLKERQKKLK", "note": "[D22K]", "protein stability index": 2.18}
{"variant": "QSSHYLQWILDKQDLLKERQKLLK", "note": "[D22L]", "protein stability index": 2.08}
{"variant": "QSSHYLQWILDKQDLLKERQKMLK", "note": "[D22M]", "protein stability index": 2.55}
{"variant": "QSSHYLQWILDKQDLLKERQKNLK", "note": "[D22N]", "protein stability index": 2.9}
{"variant": "QSSHYLQWILDKQDLLKERQKPLK", "note": "[D22P]", "protein stability index": 2.6}
{"variant": "QSSHYLQWILDKQDLLKERQKQLK", "note": "[D22Q]", "protein stability index": 2.1}
{"variant": "QSSHYLQWILDKQDLLKERQKRLK", "note": "[D22R]", "protein stability index": 3.72}
{"variant": "QSSHYLQWILDKQDLLKERQKSLK", "note": "[D22S]", "protein stability index": 2.59}
{"variant": "QSSHYLQWILDKQDLLKERQKTLK", "note": "[D22T]", "protein stability index": 2.31}
{"variant": "QSSHYLQWILDKQDLLKERQKVLK", "note": "[D22V]", "protein stability index": 2.79}
{"variant": "QSSHYLQWILDKQDLLKERQKWLK", "note": "[D22W]", "protein stability index": 2.57}
{"variant": "QSSHYLQWILDKQDLLKERQKYLK", "note": "[D22Y]", "protein stability index": 2.82}
{"variant": "QSSHYLQWILDKQDLLKERQKDAK", "note": "[L23A]", "protein stability index": 3.41}
{"variant": "QSSHYLQWILDKQDLLKERQKDCK", "note": "[L23C]", "protein stability index": 3.31}
{"variant": "QSSHYLQWILDKQDLLKERQKDDK", "note": "[L23D]", "protein stability index": 4.22}
{"variant": "QSSHYLQWILDKQDLLKERQKDEK", "note": "[L23E]", "protein stability index": 3.81}
{"variant": "QSSHYLQWILDKQDLLKERQKDFK", "note": "[L23F]", "protein stability index": 2.82}
{"variant": "QSSHYLQWILDKQDLLKERQKDGK", "note": "[L23G]", "protein stability index": 4.43}
{"variant": "QSSHYLQWILDKQDLLKERQKDHK", "note": "[L23H]", "protein stability index": 3.31}
{"variant": "QSSHYLQWILDKQDLLKERQKDIK", "note": "[L23I]", "protein stability index": 3.39}
{"variant": "QSSHYLQWILDKQDLLKERQKDKK", "note": "[L23K]", "protein stability index": 3.6}
{"variant": "QSSHYLQWILDKQDLLKERQKDMK", "note": "[L23M]", "protein stability index": 3.31}
{"variant": "QSSHYLQWILDKQDLLKERQKDNK", "note": "[L23N]", "protein stability index": 3.18}
{"variant": "QSSHYLQWILDKQDLLKERQKDPK", "note": "[L23P]", "protein stability index": 2.59}
{"variant": "QSSHYLQWILDKQDLLKERQKDQK", "note": "[L23Q]", "protein stability index": 3.83}
{"variant": "QSSHYLQWILDKQDLLKERQKDRK", "note": "[L23R]", "protein stability index": 3.52}
{"variant": "QSSHYLQWILDKQDLLKERQKDSK", "note": "[L23S]", "protein stability index": 3.54}
{"variant": "QSSHYLQWILDKQDLLKERQKDTK", "note": "[L23T]", "protein stability index": 3.27}
{"variant": "QSSHYLQWILDKQDLLKERQKDVK", "note": "[L23V]", "protein stability index": 2.48}
{"variant": "QSSHYLQWILDKQDLLKERQKDWK", "note": "[L23W]", "protein stability index": 2.98}
{"variant": "QSSHYLQWILDKQDLLKERQKDYK", "note": "[L23Y]", "protein stability index": 1.85}
{"variant": "QSSHYLQWILDKQDLLKERQKDLA", "note": "[K24A]", "protein stability index": 2.66}
{"variant": "QSSHYLQWILDKQDLLKERQKDLC", "note": "[K24C]", "protein stability index": 2.29}
{"variant": "QSSHYLQWILDKQDLLKERQKDLD", "note": "[K24D]", "protein stability index": 4.08}
{"variant": "QSSHYLQWILDKQDLLKERQKDLE", "note": "[K24E]", "protein stability index": 3.78}
{"variant": "QSSHYLQWILDKQDLLKERQKDLF", "note": "[K24F]", "protein stability index": 2.69}
{"variant": "QSSHYLQWILDKQDLLKERQKDLG", "note": "[K24G]", "protein stability index": 3.1}
{"variant": "QSSHYLQWILDKQDLLKERQKDLH", "note": "[K24H]", "protein stability index": 3.29}
{"variant": "QSSHYLQWILDKQDLLKERQKDLI", "note": "[K24I]", "protein stability index": 2.21}
{"variant": "QSSHYLQWILDKQDLLKERQKDLL", "note": "[K24L]", "protein stability index": 3.19}
{"variant": "QSSHYLQWILDKQDLLKERQKDLM", "note": "[K24M]", "protein stability index": 2.57}
{"variant": "QSSHYLQWILDKQDLLKERQKDLN", "note": "[K24N]", "protein stability index": 3.46}
{"variant": "QSSHYLQWILDKQDLLKERQKDLP", "note": "[K24P]", "protein stability index": 2.4}
{"variant": "QSSHYLQWILDKQDLLKERQKDLQ", "note": "[K24Q]", "protein stability index": 2.77}
{"variant": "QSSHYLQWILDKQDLLKERQKDLR", "note": "[K24R]", "protein stability index": 2.57}
{"variant": "QSSHYLQWILDKQDLLKERQKDLS", "note": "[K24S]", "protein stability index": 2.81}
{"variant": "QSSHYLQWILDKQDLLKERQKDLT", "note": "[K24T]", "protein stability index": 2.96}
{"variant": "QSSHYLQWILDKQDLLKERQKDLV", "note": "[K24V]", "protein stability index": 2.92}
{"variant": "QSSHYLQWILDKQDLLKERQKDLW", "note": "[K24W]", "protein stability index": 1.78}
{"variant": "QSSHYLQWILDKQDLLKERQKDLY", "note": "[K24Y]", "protein stability index": 2.17}
{"variants_of": "B2", "test": "protein stability index of a GFP-peptide fusion (GPS, HEK-293T) (PSI 1-6); higher = more stable", "conditions": "c terminus: a fixed tail appended"}
{"variant": "AHPIKETVVEEPVDITPYLDQLDE", "note": "[F1A]", "protein stability index": 5.42}
{"variant": "CHPIKETVVEEPVDITPYLDQLDE", "note": "[F1C]", "protein stability index": 5.32}
{"variant": "DHPIKETVVEEPVDITPYLDQLDE", "note": "[F1D]", "protein stability index": 5.78}
{"variant": "EHPIKETVVEEPVDITPYLDQLDE", "note": "[F1E]", "protein stability index": 5.2}
{"variant": "GHPIKETVVEEPVDITPYLDQLDE", "note": "[F1G]", "protein stability index": 5.5}
{"variant": "HHPIKETVVEEPVDITPYLDQLDE", "note": "[F1H]", "protein stability index": 5.5}
{"variant": "IHPIKETVVEEPVDITPYLDQLDE", "note": "[F1I]", "protein stability index": 4.99}
{"variant": "KHPIKETVVEEPVDITPYLDQLDE", "note": "[F1K]", "protein stability index": 5.66}
{"variant": "LHPIKETVVEEPVDITPYLDQLDE", "note": "[F1L]", "protein stability index": 5.28}
{"variant": "MHPIKETVVEEPVDITPYLDQLDE", "note": "[F1M]", "protein stability index": 5.23}
{"variant": "NHPIKETVVEEPVDITPYLDQLDE", "note": "[F1N]", "protein stability index": 5.47}
{"variant": "PHPIKETVVEEPVDITPYLDQLDE", "note": "[F1P]", "protein stability index": 5.74}
{"variant": "QHPIKETVVEEPVDITPYLDQLDE", "note": "[F1Q]", "protein stability index": 5.65}
{"variant": "RHPIKETVVEEPVDITPYLDQLDE", "note": "[F1R]", "protein stability index": 5.18}
{"variant": "SHPIKETVVEEPVDITPYLDQLDE", "note": "[F1S]", "protein stability index": 5.58}
{"variant": "THPIKETVVEEPVDITPYLDQLDE", "note": "[F1T]", "protein stability index": 5.54}
{"variant": "VHPIKETVVEEPVDITPYLDQLDE", "note": "[F1V]", "protein stability index": 5.44}
{"variant": "WHPIKETVVEEPVDITPYLDQLDE", "note": "[F1W]", "protein stability index": 4.97}
{"variant": "YHPIKETVVEEPVDITPYLDQLDE", "note": "[F1Y]", "protein stability index": 3.3}
{"variant": "FAPIKETVVEEPVDITPYLDQLDE", "note": "[H2A]", "protein stability index": 4.34}
{"variant": "FCPIKETVVEEPVDITPYLDQLDE", "note": "[H2C]", "protein stability index": 4.11}
{"variant": "FDPIKETVVEEPVDITPYLDQLDE", "note": "[H2D]", "protein stability index": 5.42}
{"variant": "FEPIKETVVEEPVDITPYLDQLDE", "note": "[H2E]", "protein stability index": 5.26}
{"variant": "FFPIKETVVEEPVDITPYLDQLDE", "note": "[H2F]", "protein stability index": 4.86}
{"variant": "FGPIKETVVEEPVDITPYLDQLDE", "note": "[H2G]", "protein stability index": 5.35}
{"variant": "FIPIKETVVEEPVDITPYLDQLDE", "note": "[H2I]", "protein stability index": 3.71}
